Results as given in the nanobody polyreactivity screen of Harvey et al. (2022).

Assay: yeast display, Sf9 membrane polyspecificity reagent, FACS + sequencing; frameworks hold sequencing errors
Procedure, shortened: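 A synthetic nanobody library was expressed on Saccharomyces cerevisiae BJ5465 by galactose induction for 36–48 hours. The library was stained for 1 hour at 4 °C with 10% biotinylated, detergent-solubilized Sf9 membrane reagent and enriched with streptavidin microbeads before FACS. Low and high (top ~1%) gates were set on anti-HA fluorescence for expression and streptavidin fluorescence for reagent binding, and each polyreactivity label reflects the gate of origin.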

Row | Sequence | polyreactivity (PSR sort gate)
1 | QVQLVETGGGLVQAGGSLRLSCAASGSIFPGNAMGWYRQAPGKERELVAVIDFSGASTYYADSVKGRFTISRDNAKNTVYLQMNSLKPEDTADYWGQGTQVTVSS | low polyreactivity
2 | QVQLVETGGGLVQAGGSLRLSCAASGSIFTYYTMGWYRQAPGKERELVAAINGRGHSTYYADSVKGRFTISRDNAKNTVYLHMNSLKPEDTAVYYCARRRQYEYNYWGQGTQVTVSS | high polyreactivity
3 | QVQLVETGGGLVQAGGSLRLSCAASGSIFVYYAMRWYRQAPGKERELVAAITIGASTDYADSVKGRFTISRDNAKNTVYLQMISVKPEDTAVYNCAADLYYGDYRTLPKADEYDYWGQGTQVTVSS | low polyreactivity
4 | QVQLVETGGGLVQAGGSLRLSCAASGSIFWYYAMGWYRQAPGKERELVAAISAYGSSTYYADSVKGRFTISRDNAKNTVYLQMNSLKPEDTAVYYCAATYILYNDWLYHYFPEEYDYWGQGTQVTVSS | low polyreactivity
5 | QVQLVETGGGLVQAGGSLRLSCAASGSTFESNTMGWYRQAPGKERELVAAISYSGGRTYYADSVKGRFTISRDNAKNTVYLQMNSLKPEDTAVYYCAARWSVSYQYWGQGSQVTVSS | high polyreactivity
6 | QVQLVETGGGLVQAGGSLRLSCAASGSTFPRYAMVWSRQAPGKESEYVAVNWSGGSTYYADSVKGRFTISRDNAKNTVYLQMNSLKPEDTAVYYCAAEYHTLSKYSGYATHDYWGQGTQVTVSS | low polyreactivity
7 | QVQLVETGGGLVQAGGSLRLSCAASGSTFSRYPMGWYRQAPGKEWELVAAITGTGGRTYYADSVKGRFTISRDNEKNTVYLLMNSLKPEDTAVYYCAAQRWTVKYNYWGQGTQVTVSS | high polyreactivity
8 | QVQLVETGGGLVQAGGSLRLSCAASGSTFVRYTMGWYRQAPGKERELVAAISQRDSRTYYADSVKGRFTISRDNAKNTVYLQMNSLKPEDTAVYYCAARSWWYRSATYNYWGQGTQVTVSS | high polyreactivity
9 | QVQLVETGGGLVQAGGSLRLSCAASGYIFGYVMGWYRQAPGKERELVAAITYSSGNTYYADSVKGRFTISRDNAKNTVYLQMNSLKPEDTAVYYCAKQAYYKGRLAYGYWGQGTQVTVSS | high polyreactivity
10 | QVQLVETGGGLVQAGGSLRLSCAASGYTFDGYAMGWYRQAPGKERELVAAINSGGGTYYADSVKGRFTISRDNAKNTVYLLMNSQKPEDTAVYYCAAERVYSDMDYWGQGTQVTVSS | low polyreactivity
11 | QVQLVETGGGLVQAGGSLRLSCAASVRIFFVYAMGWYRQAPGKERELVAAITYDDGDTFYADSVKGRFTISRDNAKNTVYLQMNSLKPEDTAVYYCAAEGYSYIQSDLDYWGQGTQVTVSS | high polyreactivity
12 | QVQLVETGGGLVQAGGSLRLSCAAYGFTFEYNAMGWYRQAPGKERELVAAITTTGSTYYADSVKGRFTISRDNAKNTVYLQMNSLKPEDTAVYYCAADPVWRGYSYQFDYWGQGTQVTVSS | low polyreactivity
13 | QVQLVETGGGLVQAGGSLRLSCADSGSIYQKNAMGWYRQPPGKERELVAAITSGGTTYYADSVKGRFTISRDNAKNTVYLQMYSLKPEDTAVYYCAKYHCRLSFSRYPYDYWGQGTQVTVSS | high polyreactivity
14 | QVQLVETGGGLVQAGGSLRLSCADSGSTFPGNGMVWSRQAPGKERELVAGISSGGRTYYADSVKGRVTISRDNAKNTVYLQLNRLKPEDTAVYYCATEGDYFAKYDRMDYWGQGTQVTVSS | low polyreactivity
15 | QVQLVETGGGLVQAGVSLRLSSAASGITIGKNAMGWYRQEPGKESELVAAITRDGGTNYADSVKGRFTISRDNSKNTVYLQMNRLKPEDTAVYYCAKRAYFYYGRYDYWGQGTQVTVSS | low polyreactivity
16 | QVQLVETGGGLVQASGSLRLSSAASGRIFTRYAMGWYRQAHGKERELVPAITRGGSTYYADSVKGRFTISRDNAKNTVYLQMNSLKPEDTAVYYCAADWFGISVVRDPFDHWGQGTQVTVSS | high polyreactivity
17 | QVQLVETGGGLVQEGGSLRLSCAASGRTFYSYAMGWYRQAPGKERELVARISSGGSTNYADSVKGRFTISRDNAKNTVYFQMNSLKPEDTAVYYCAAVRHRAMDYWGQGTQVTVSS | low polyreactivity
18 | QVQLVETGGGVVQAGGSLRLSCAASGRTFGFNAMGWYIQAPGKERELVASITSTGGRTYYADSVKGLFTISRDNAKNTVYLQMNCLKPEDTAVYYCAAGSRSRAPYYRTIVDTYGYWGQGTQVTVSS | low polyreactivity
19 | QVQLVETGGVLVQAGGSLRLSFAASGIIFSISALGGYRQAPGKERELVAAITYSGGRTYYADSVKGRFTISRDTAKNTVYLQMNSLKPEDTAVYYCAADYYYYGSYYPVEYWGQGTQVTVSS | high polyreactivity
20 | QVQLVETRGGLVQAGGRLRLSCAASGGIFPVNAMGWYRQAPGKERELVAAISWSVGRTYYADSVKGRFTISRDNAKNTVYLQMISLKREDTAVYYCAAEWFGVYRRYKYDYCGQGTQVTVSS | low polyreactivity
21 | QVQLVETVGGLLQAGGSLRLSCPASGSTLYYNTMGWYRQAPGKERELVATISSRGGRTHYADSVKGRFTISRDNAKNTVYLQMNSLKPEDTAVYYCNALPRVVYTVGQSPFYYWGQGTQVTVSS | high polyreactivity
22 | QVQLVETVGGLVQAGGSLRLSCAASGSIFTHYAMGWYREAPGKERELVAAITWSGGSTYYADSVKGRFTISRDNAKNTVYLQMNSLIPEDTAVYYCNVAWVGVSLVYGPFEYDYWGQGTQVTVSS | high polyreactivity

Row | Sequence | polyreactivity (PSR sort gate)
23 | QVQLVETWGGLVQAGGSLRLSCAASGRNFRTNAMGWYRQAPGKERELVAAITSDGTYYADSVKGRFTISRDNAKNNVYLQMNSVKPEDTAVYYCNVDDRETRDDYWGQGTQVTVSS | low polyreactivity
24 | QVQLVGSGGGLVQAGGSLRLSCAASGLTFNWYAMGWYRQAPGKERELVASVSKRGGSTYYADSVKGRFTISRDNAKNNVYLQMNSLKPEDTAVYYCAASRYPSYDYWGQGTQVTVSS | high polyreactivity
25 | QVQLVKSGGGLVQAGGSLRLSCAASGGTFSFYTMGWYRQAPGKERELVAAIDSTGRTNYADSVKGRFTISRDNANHTVYLQMNSLKPEDTAVYYCAAGPPRADYDYWGQGTQVNVSS | low polyreactivity
26 | QVQLVKSGGGLVQAGGSLRLSCAASGSTFYNAMGWYRQAPGKEREWVAAISIGGSTYYADSVKGRFTISRDNAKNTVYLQMNSLKPEDTAVYYCNSDLYYWLRYYDRNDYWGQGTQVTVSS | low polyreactivity
27 | QVQLVKSGGGLVQAGGSLRLSCAASRFIIPEYTMGWYRQAPGKARELVAAISGSGGSTYYADSVKGRFTISRDNAKHTVYLQMNSLKPEDTAVYYCATAFIVPFPGSDYWGQGTQVTVSS | low polyreactivity
28 | QVQLVQSGGGFVQAGGSLRVSCAASGRTFGVYAMGWYRQAPGKEREFVAAISYSGGRTYYADSVKGRFTISRDNAKNTVYLQMNSLKPEDTAVYSCNARAFPYYRRFDYWGQGTQVTVSS | high polyreactivity
29 | QVQLVQSGGGLLQAGGSLRLSCAASGSINIYNDMGWNRQATGKERELVAAITSSGGSTYYADSVKGGFTISRDNGKNTVYLQMNSLKPEDTAVYYCAADYVDHKVWYDYWGHGTQVTVSS | low polyreactivity
30 | QVQLVQSGGGLLQAGGSLRLSSAASGYTFGYYARGCYREAPGQERELVAAITSGGTTNYADTVKGRFTISRDNAKNTVYLQINSLKPEDTAVSYCNAVCTFVRYWTDGRDGVTYDYWGQGTQVTVSS | low polyreactivity
31 | QVQLVQSGGGLVQAGGSLRLICAASGSIFLYYAMGWYRQAPAKERELVAGIRRGGRKNYADSVKGRFTISRDNSKNTVYLQLNSLKPEDTGVYYCAKGGYWGQCTQVTVSS | high polyreactivity
32 | QVQLVQSGGGLVQAGGSLRLSCAASGRTFSKYVLGWYRQAPGKERQLVAAITYSGGYTYYADSVKGRFTISRDNAKNTVYLQMYSLKPEDTAVYYCAAESYAHVSNGYDYWGQGTQVTVSS | low polyreactivity
33 | QVQLVQSGGGLVQAGGSLRLSCAASGSIFYDYAMGWYRQAPGKERELVAAINSGVSTSYADSVKGRFTISRDNAKNTVYLQMNSLKPEDTAVYYCAKDGSSPSPWYGGFGYWGQGTQVTVSS | low polyreactivity
34 | QVQLVQSGGGLVQAGGSLRLSCAASGSIINKYAMGWYRQAPGKERELVAAISFSGGSTYYADSVKGRFTISRDNAKITVYLQMNSLKPEDTAVYYCAAYHRPYQSYYWGKGTQVTVSS | high polyreactivity
35 | QVQLVQSGGGLVQAGGSLRLSCAASGSTFYLNAMGLYIQAPGKERELLAAITDAGSTNYADSVKGRFTISRDNAKNTVYLQMNSLKPEDTAVYYCNAEPRYYSGGHGYDYWGQGTQVTVSS | low polyreactivity
36 | QVQLVQSGGGLVQAGGSLRLSCAASGSTFYTYGLGWYRQAPGKARQFVAAISYRGGSTYYADSVKGRFTISRDNAKNTVYLQMNSLKPEVTAVYYCYVDGVVVGTIRGGYDYWGQGTQVTVSS | low polyreactivity
37 | QVQLVQSGGGLVQAGGSLRLSCAASGYIFNFNPMGWNRQAPGKERELVAVISDRDDTTYYADSVKGRFTISRDNAKNTVYLQMNSMKPEDTAVYYCAAVGDTYVDDQYDYWGQGTQVTVSS | low polyreactivity
38 | QVQLVQSGGGLVQAGGSLRLSCAATGSTFRIYAIGWYRQAPGKEREFVAAISDRGGRTYYADSVKGRFTISRDNAKNTVYLQMNSLKPEDTAVYYCAAVKLLSSAPGDDGQMNYWGQGTQVTVSS | low polyreactivity
39 | QVQLVQSGGGLVQAGGSLSLSCAASGRIFGINAMGWYRQAPGKESELVAAISSGGSTYYADSVKGRFTISLDNAKNTVYLQMNSLKPEDTAVYYCAADYDSYVSHDRGVWRDYWGQGTQVTVSS | low polyreactivity
40 | QVQLVQSRGGLVQAGGSLRLSCAASGYIFWYYVKGWNRQAPGKERELVASITIGGGRTYYADSVKGRFTISRDFAKNSVYLQMNCMKPEDTAVYYCAAVTTPYNSDFDYWGQGTQVTVSS | low polyreactivity
41 | QVQLVQTGRGLVQAGGSLRLICAASGIIFKYYGMGWYRQAPGKERELVAAITDRGGSTYYADSVKGRFTISRDHAKNTVYLQMNSLKPEDTAVYYCSAVPSSGKSGFRGGYWGQVTQVTVSS | high polyreactivity
42 | QVQLVVSGGGLVQAGCTHRISCAPSGRISKLYAMGWSIPAPGKERELVAAISWRGGSTYYADSVKGRFTISRDNAKITVYLQLYSLKPEDTAVYFCNKAYPADDDYWGQGTQVSVSS | low polyreactivity
43 | QVQLVVSGGGLVQAGGILRFSCAASGRTIWYNAMGWYRQAPGKERELVASISRSGGSTYYADSVKGRFTISRDNAKNTVYLQMNSLKPEDTAVYYCAAESFDYTTWYGYWGQGTQVTVSS | high polyreactivity
